# Test results from US20230002480A1.
# What was measured:
# Experiment in all cases: cell-based or functional assay
# [1] = biological target: HIV-1 Env of pseudovirus 1054_07_TC4_1499 (HIV-1)
# [2] = biological target: HIV-1 Env of pseudovirus 249M B10 (HIV-1)
# [3] = biological target: HIV-1 Env of pseudovirus 6540.v4.c1 (HIV-1)
# [4] = biological target: HIV-1 Env of pseudovirus 62357_14_D3_4589 (HIV-1)
# [5] = biological target: HIV-1 Env of pseudovirus CNE53 (HIV-1)
# [6] = biological target: HIV-1 Env of pseudovirus Ce1086_B2 (HIV-1)
# [7] = biological target: HIV-1 Env of pseudovirus CNE52 (HIV-1)
# [8] = biological target: HIV-1 Env of pseudovirus CNE17 (HIV-1)
# [9] = biological target: HIV-1 Env of pseudovirus BF1266.431a (HIV-1)
# [10] = biological target: HIV-1 Env of pseudovirus 89-F1_2_25 (HIV-1)
# [11] = biological target: HIV-1 Env of pseudovirus Du172.17 (HIV-1)
# [12] = biological target: HIV-1 Env of pseudovirus TRO.11 (HIV-1)
# [13] = biological target: HIV-1 Env of pseudovirus CNE19 (HIV-1)
# [14] = biological target: HIV-1 Env of pseudovirus CNE30 (HIV-1)
# [15] = biological target: HIV-1 Env of pseudovirus HIV-16845-2.22 (HIV-1)
# [16] = biological target: HIV-1 Env of pseudovirus CNE20 (HIV-1)
# [17] = biological target: HIV-1 Env of pseudovirus Q842.d12 (HIV-1)
# [18] = biological target: HIV-1 Env of pseudovirus 6535.3 (HIV-1)
# [19] = biological target: HIV-1 Env of pseudovirus AC10.0.29 (HIV-1)
# [20] = biological target: HIV-1 Env of pseudovirus 6480.v4.c25 (HIV-1)
# [21] = biological target: HIV-1 Env of pseudovirus ZM247v1(Rev-) (HIV-1)
# [22] = biological target: HIV-1 Env of pseudovirus CAP45.2.00.G3 (HIV-1)
# [23] = biological target: HIV-1 Env of pseudovirus Q461.e2 (HIV-1)
# [24] = biological target: HIV-1 Env of pseudovirus 6244_13_B5_4576 (HIV-1)
# [25] = biological target: HIV-1 Env of pseudovirus 3301.v1.c24 (HIV-1)
# [26] = biological target: HIV-1 Env of pseudovirus CAP210.2.00.E8 (HIV-1)
# [27] = biological target: HIV-1 Env of pseudovirus C4118.c09 (HIV-1)
# [28] = biological target: HIV-1 Env of pseudovirus 6041.v3.c23 (HIV-1)
# [29] = biological target: HIV-1 Env of pseudovirus ZM135M.PL10a (HIV-1)
# [30] = biological target: HIV-1 Env of pseudovirus BJOX025000.01.1 (HIV-1)
# [31] = biological target: HIV-1 Env of pseudovirus WEAU_d15_410_787 (HIV-1)
# [32] = biological target: HIV-1 Env of pseudovirus BJOX015000.11.5 (HIV-1)
# [33] = biological target: HIV-1 Env of pseudovirus T255-34 (HIV-1)
# [34] = biological target: HIV-1 Env of pseudovirus CNE58 (HIV-1)
# [35] = biological target: HIV-1 Env of pseudovirus P0402_c2_11 (HIV-1)
substance,measurement,setting,value
3BNC117 (antibody),neutralization IC50,[1],0.07 µg/mL
same,neutralization IC80,[1],0.49 µg/mL
same,neutralization IC50,[2],0.1 µg/mL
same,neutralization IC80,[2],0.4 µg/mL
same,"IC50, titer in TZM.bl cells",[3],> 50 µg/mL
same,"IC80, titer in TZM.bl cells",[3],> 50 µg/mL
same,neutralization IC50,[4],0.06 µg/mL
same,neutralization IC80,[4],0.26 µg/mL
same,neutralization IC50,[5],0.08 µg/mL
same,neutralization IC80,[5],0.99 µg/mL
same,neutralization IC50,[6],0.09 µg/mL
same,neutralization IC80,[6],0.31 µg/mL
same,neutralization IC50,[7],0.02 µg/mL
same,neutralization IC80,[7],0.06 µg/mL
same,neutralization IC50,[8],5.76 µg/mL
same,neutralization IC80,[8],43 µg/mL
same,neutralization IC50,[9],0.03 µg/mL
same,neutralization IC80,[9],0.09 µg/mL
same,"IC50, titer in TZM.bl cells",[10],> 50 µg/mL
same,"IC80, titer in TZM.bl cells",[10],> 50 µg/mL
same,neutralization IC50,[11],1.19 µg/mL
same,neutralization IC80,[11],8.9 µg/mL
same,neutralization IC50,[12],< 0.09 µg/mL
same,neutralization IC80,[12],< 0.09 µg/mL
same,neutralization IC50,[13],0.02 µg/mL
same,neutralization IC80,[13],0.08 µg/mL
same,neutralization IC50,[14],0.26 µg/mL
same,neutralization IC80,[14],0.85 µg/mL
same,neutralization IC50,[15],27.5 µg/mL
same,neutralization IC80,[15],> 50 µg/mL
same,neutralization IC50,[16],> 50 µg/mL
same,neutralization IC80,[16],> 50 µg/mL
same,neutralization IC50,[17],< 0.01 µg/mL
same,neutralization IC80,[17],0.01 µg/mL
same,neutralization IC50,[18],0.55 µg/mL
same,neutralization IC80,[18],2.44 µg/mL
same,neutralization IC50,[19],13.8 µg/mL
same,neutralization IC80,[19],> 50 µg/mL
same,"IC50, titer in TZM.bl cells",[20],0.01 µg/mL
same,"IC80, titer in TZM.bl cells",[20],0.04 µg/mL
same,neutralization IC50,[21],> 50 µg/mL
same,neutralization IC80,[21],> 50 µg/mL
same,neutralization IC50,[22],3.88 µg/mL
same,neutralization IC80,[22],> 50 µg/mL
same,neutralization IC50,[23],0.03 µg/mL
same,neutralization IC80,[23],0.09 µg/mL
same,neutralization IC50,[24],0.04 µg/mL
same,neutralization IC80,[24],0.15 µg/mL
same,"IC50, titer in TZM.bl cells",[25],0.01 µg/mL
same,"IC80, titer in TZM.bl cells",[25],0.05 µg/mL
same,neutralization IC50,[26],17.2 µg/mL
same,neutralization IC80,[26],> 50 µg/mL
same,"IC50, titer in TZM.bl cells",[27],0.09 µg/mL
same,"IC80, titer in TZM.bl cells",[27],0.52 µg/mL
same,"IC50, titer in TZM.bl cells",[28],0.01 µg/mL
same,"IC80, titer in TZM.bl cells",[28],0.07 µg/mL
same,neutralization IC50,[29],0.03 µg/mL
same,neutralization IC80,[29],0.13 µg/mL
same,"IC50, titer in TZM.bl cells",[30],0.05 µg/mL
same,"IC80, titer in TZM.bl cells",[30],0.2 µg/mL
same,neutralization IC50,[31],0.05 µg/mL
same,neutralization IC80,[31],0.19 µg/mL
same,"IC50, titer in TZM.bl cells",[32],0.05 µg/mL
same,"IC80, titer in TZM.bl cells",[32],0.32 µg/mL
same,"IC50, titer in TZM.bl cells",[33],0.02 µg/mL
same,"IC80, titer in TZM.bl cells",[33],0.14 µg/mL
same,neutralization IC50,[34],0.25 µg/mL
same,neutralization IC80,[34],2.03 µg/mL
same,"IC50, titer in TZM.bl cells",[35],0.06 µg/mL
same,"IC80, titer in TZM.bl cells",[35],0.38 µg/mL
NIH 45-46 (antibody),neutralization IC50,[1],0.07 µg/mL
same,neutralization IC80,[1],0.61 µg/mL
same,neutralization IC50,[2],0.04 µg/mL
same,neutralization IC80,[2],0.17 µg/mL
same,"IC50, titer in TZM.bl cells",[3],> 50 µg/mL
same,"IC80, titer in TZM.bl cells",[3],> 50 µg/mL
same,neutralization IC50,[4],0.05 µg/mL
same,neutralization IC80,[4],0.22 µg/mL
same,neutralization IC50,[5],0.01 µg/mL
same,neutralization IC80,[5],0.04 µg/mL
same,neutralization IC50,[6],0.04 µg/mL
same,neutralization IC80,[6],0.28 µg/mL
same,neutralization IC50,[7],0.03 µg/mL
same,neutralization IC80,[7],0.12 µg/mL
same,neutralization IC50,[8],0.15 µg/mL
same,neutralization IC80,[8],0.55 µg/mL
same,neutralization IC50,[9],0.01 µg/mL
same,neutralization IC80,[9],0.03 µg/mL
same,"IC50, titer in TZM.bl cells",[10],> 50 µg/mL
same,"IC80, titer in TZM.bl cells",[10],> 50 µg/mL
same,neutralization IC50,[11],> 30 µg/mL
same,neutralization IC80,[11],> 30 µg/mL
same,neutralization IC50,[12],1.9 µg/mL
same,neutralization IC80,[12],9.56 µg/mL
same,neutralization IC50,[13],0.07 µg/mL
same,neutralization IC80,[13],0.37 µg/mL
same,neutralization IC50,[14],0.34 µg/mL
same,neutralization IC80,[14],1.48 µg/mL
same,neutralization IC50,[15],2.05 µg/mL
same,neutralization IC80,[15],12.1 µg/mL
same,neutralization IC50,[16],8.71 µg/mL
same,neutralization IC80,[16],47 µg/mL
same,neutralization IC50,[17],0.03 µg/mL
same,neutralization IC80,[17],0.03 µg/mL
same,neutralization IC50,[18],0.14 µg/mL
same,neutralization IC80,[18],0.28 µg/mL
same,neutralization IC50,[19],0.42 µg/mL
same,neutralization IC80,[19],1.49 µg/mL
same,"IC50, titer in TZM.bl cells",[20],0.02 µg/mL
same,"IC80, titer in TZM.bl cells",[20],0.08 µg/mL
same,neutralization IC50,[21],1.64 µg/mL
same,neutralization IC80,[21],> 50 µg/mL
same,neutralization IC50,[22],> 50 µg/mL
same,neutralization IC80,[22],> 50 µg/mL
same,neutralization IC50,[23],0.06 µg/mL
same,neutralization IC80,[23],0.32 µg/mL
same,neutralization IC50,[24],0.07 µg/mL
same,neutralization IC80,[24],0.26 µg/mL
same,"IC50, titer in TZM.bl cells",[25],0.01 µg/mL
same,"IC80, titer in TZM.bl cells",[25],0.03 µg/mL
same,neutralization IC50,[26],> 50 µg/mL
same,neutralization IC80,[26],> 50 µg/mL
same,"IC50, titer in TZM.bl cells",[27],0.14 µg/mL
same,"IC80, titer in TZM.bl cells",[27],0.91 µg/mL
same,"IC50, titer in TZM.bl cells",[28],0.01 µg/mL
same,"IC80, titer in TZM.bl cells",[28],0.04 µg/mL
same,neutralization IC50,[29],0.36 µg/mL
same,neutralization IC80,[29],3.11 µg/mL
same,"IC50, titer in TZM.bl cells",[30],0.18 µg/mL
same,"IC80, titer in TZM.bl cells",[30],10 µg/mL
same,neutralization IC50,[31],0.01 µg/mL
same,neutralization IC80,[31],0.03 µg/mL
same,"IC50, titer in TZM.bl cells",[32],0.06 µg/mL
same,"IC80, titer in TZM.bl cells",[32],0.38 µg/mL
same,"IC50, titer in TZM.bl cells",[33],0.23 µg/mL
same,"IC80, titer in TZM.bl cells",[33],2.38 µg/mL
same,neutralization IC50,[34],0.25 µg/mL
same,neutralization IC80,[34],1.49 µg/mL
same,"IC50, titer in TZM.bl cells",[35],0.06 µg/mL
same,"IC80, titer in TZM.bl cells",[35],0.26 µg/mL
